In a protein production outcome set (Wang et al. 2014):

Test: label from the status in PepcDB records

For “MMQSRRVQESLVGLVILAGLATLGVGLLWLRGNLAGANSYTLEVELDTAPGLAVGTQVRYRGVQVGRVTAIGFDANGVQVSVRINNVLIPRRAVPEIRQSGFIGQAFLDFTPKERVPEIPEGVTAFAPKCQPELVYCNGDRVTGVRTASLEDLVRAATRFTTALEESGLINNANTLILGATRIVNRADQSLTKVTTALDSFNALSNQARAELRNFGIAAQAVTRAANQISEIVEVNRNTINSSLRNIDSAARELRTTLKALHPLTNQLEQGELLANLDALIKNGAEAAANLNKVSGALSSPLIMLSIAQTLDAARATFINAQKLTNDLLKLTSDPSFQSDLRRLIQILRRLLASSQDLEQQFLALHATSLGEAHEPMPAISAPTAAAKPTKEEEPEP”, the protein production was “failed”.
For “MMREFEIERQFNIKIEYIKPNKGVYFVKTNKGNKCLKKINYGIQKLLFVYAAKEHLINNGFKYVDKYCLNTEGNPYALVNEDIYTLSEWIEGRECSFYDTEDLVKASKTLAKMHECSKGYEPPENSKLKSDLGRWPHLIEKRVKALDKMRDMARKKGNKKDFDMNYIKNVDFFKEQGIKSMNVLKNSKYESLCAVAEEEKGFCHHDYTYHNIIINNEDNVYVIDFDYCKRELRAYDISNFMIKVLKRSNWSMKTAELILDSYSSISKLDDDEYGVIYAFLIFPQRFWRLANRYYYNEVNWGQNTFNNKMEELIEERERYIKFIEDFREAYNLQ”, the protein production was “failed”.
In the case of “MMRFLFVDRIVQLSPGEWIKGIKHVTRDDAYLTTDDHGRLCFMPSLIGETLGQLAAWNVMQHNHFTARPVAGVVSSARLYRPAYVGETILLESNIDSLDEKAVQYHSIAKVGNDIIFTIDGALGPMLPMTEFISTEVIRQQFAEIYRPGDWSSVLALSSPVLIEENCSDCGMINSSMQFDRILASQPGISLIAEKRITRSASYFPDHFPKRPVLPMTVLLECKLNLAKEFIARAKYDRAYRISELRKIKMNEFVHPGDVVVCQVKVKQQMDDELILSYRCEVDGKRVCVVDIVLIPKGK”, the protein production is reported as “failed”.
With “MMRLANGIVLDKDTTFGELKFSALRREVRIQNEDGSVSDEIKERTYDLKSKGQGRMIQVSIPASVPLKEFDYNARVELINPIADTVATATYQGADVDWYIKADDIVLTKDSSSFKAQPQAKKEPTQDKLEHHHHHH” the protein production was “not failed”.
With “MMRPKVYFKTFGCRTNLFDTQIMIKNLQNFELTEIEESADIVVVNSCTVTNGADSGVRSYLHRLKSEGKRVYLTGCGVLTRGEEIFTQELAFGVFGHSYKEQIDSLLSQKTRFSFKGDLEHIDSTVITEFIGKSRAFVKVQEGCDFSCSYCIIPSVRGKARSLPVDRIVSQVEILAQHGFGEFVLTGTNVGSYGKESGLNVAKLLKALSQIKGVKRLRLGSLEPSQIDAEFMELLEEPFMARHLHIALQHTSPKMLQIMNRRNEAQGDLALFERLAQKGYALGTDFILGHPGESEEVWKEAWERFVAFPLTHLHAFVYSPREGTPSSLMKDRISGNIAKERMRILQERVRENNHHFRQKGEKLWVLIESEREGGLYQGLDQFFNRIEIRSSDSLAGRWLEVSDYEAESEINRAELL” the protein production was “failed”.
With “MMRVKFNGKELDTDFKTSLEFFENISKNENDVWIINGFATKENIALNENDELFCIEKNTLPPKDALDAMMRARHTPKLHDKLKNGRVAVCGLGGLGSHIAINLARSGVGYLKLIDFDVIEPSNLNRQAYRVSDLGKFKTEALKEQISEINPYISVEICTLKIDEDNLESLFKDIDIVCEAFDSAIAKAMIAQNFHRFYKDGILICASGLAGYGDSNSIQTRKIAKNFYVCGDLVNGAKLGNGLMAPRVNICAGHQSNLVLELLANKELEHHHHHH” the protein production was “not failed”.
With “MMRYKEEKEVKKEAFRKYLESSGVLDSLTKVLVSLYEQNDKPSSALEFIQQKLGGPSVSDYEKLQAEKSDLQIKYNELLAKHQETLRELNGVKSLHSRNSSKDDADRETLEAEHTTLVTPHH” the protein production was “failed”.
For “MMSGLVYRKRRRQNMTALERSWFEEAQQSMHGWDFSHLAGRWQTADLPWDYAALVREHLSADDRWLDIDTGGGELMGRFNPQPALTAVTEGWQPNIELLKQTVVKKGITLYPDAAEQLTAVPNSTFDIVTNSHGAMPVKRIAEVLKPGGRFVTQQVGATNNYALSRFFDEHYETAYPDNQLLTVMAQMQAAGFEILRAEQAYAALSFTDVGAIVYYATVIPWEFPHFDVARMLPKLHQLQSLLAINGRVTTFEDRFMIIARKLARRD”, the protein production was “failed”.
For “MMSKVVSKMKSFLGFDEFEDEDEVMEEEEVMEEEESFAPVLSSKKNGKVVNIHTANTAKLMITKPLVYDDATEICTALKNRKIVVINTTSLELRTAQRLIDFVGGACYALCGELQEVEKGVFIVSPSNVEVSNELKSELSNKGMFNWASKLEHHHHHH”, the protein production was “not failed”.
In the case of “MMSNLIILPMLLPFVCALILVFTKNKNRISKILSITTMIVNTMISIALLIYVVNHKPITLDFGGWKAPFGIQFLGDSLSLLMVSVSSFVVTLIMAYGFGRGEKRVNRFHLPTFILLLTVGVIGSFLTSDLFNLYVMFEIMLLASFVLVTLGQSVEQLRAAIVYVVLNILGSWLLLLGIGMLYKTVGTLNFSHLAMRLNHMENNQTITMISLVFLVAFSSKAALVIFMWLPKAYAVLNTELAALFAALMTKVGAYALIRFFTLLFDHHPSVTHTLLVFMACITMIIGAFGVIAYKDIKKIAAYQVILSIGFIILGLGSHTISGVNGAIFYLANDIIVKTLLFFVIGSLVYMSGYRNYQYLSGLAKREPFFGVAFVVVIFAIGGVPPFSGFPGKVLIFQGAITNGNYIGLALMIVTSLIAMYSLFRVMFIMYFGDADGEQVQFRPLPIYRKGLLSVLVVVVLAMGIAAPVVLKVTEDATNLNMKEDVFQKNVNTHLKEVNHK”, the protein production is reported as “failed”.
In the case of “MMTDEARAKLAAIPMLAGYTGPLERLGGLTNLVFRAGDLCLRIPGKGTEEYINRANEAVAAREAAKAGVSPEVLHVDPATGVMVTRYIAGAQTMSPEKFKTRPGSPARAGEAFRKLHGSGAVFPFRFELFAMIDDYLKVLSTKNVTLPAGYHDVVREAGGVRSALAAHPLPLAACHCDPLCENFLDTGERMWIVDWEYSGMNDPLWDLGDLSVEGKFNANQDEELMRAYFGGEARPAERGRVVIYKAMCDLLWTLWGLIQLANDNPVDDFRAYADGRFARCKALMETPEFSRHLAAVRMG”, the protein production is reported as “not failed”.
In the case of “MMTKFWNDRYKSDEYFYGEEPNTFIKEQAFRLANHNKVIAFAEGEGRNAVFLARQGNEVTAIDYSEDGLEKTKKLAEKHNVNVHTKKVDLLADSLPENEYDAAIMVFGHFHDDYKKMILGKMIQTIKPGGLIMFEVYSKKQINYGTGGPKDVDMLYDPIDILTWCEEHKVIHFFNGEQERIEGKGHTGLADVIQVVIRK”, the protein production is reported as “failed”.
For “MMTKYGVVGTGYFGAELARFMSKVEGAKITAIYDPVNAAPIAKELNCVATATMEALCSHPDVDCVIIASPNYLHKAPVIAAAKAGKHVFCEKPIALNYQDCKDMVDACKEAGVTFMAGHVMNFFHGVRHAKALIKAGEIGEVTQVHTKRNGFEDVQDEISWKKIRAKSGGHLYHHIHELDCTLFIMDETPSLVSMAAGNVAHKGEKFGDEDDVVLITLEFESGRFATLQWGSSFHYPEHYVLIEGTTGAILIDMQNTAGYLIKAGKKTHFLVHESQAEDDDRRNGNISSEMDGAIAYGKPGKRTPMWLSSIMKLEMQYLHDVINGLEPGEEFAKLLTGEAATNAIATADAATLSSNEGRKVKLTEILGLEHHHHHH”, the protein production was “not failed”.
For “MMTLNAFIEKLSTQPELIEFTETMAVIESHYEFTPTEFANGNTVNLADQNNGSCKIFAFALLNQLSVDQTLACFGQYYRQDVLENPQGDDHQNIRNFMVTGWAGVQFKAQALQAK”, the protein production was “failed”.
In the case of “MMTLSDLPSDLAEEVLSKIPVTSLRGVRATCKKWNTLSKDRSFTRKHLAQAKAAAAREFMVVMVMDFQVYLMGINLHKDVDATINGQGKLISLDDSNQVDISYVYHCDSLVLCIPKDCARLVVWNPYWGQTLWFKPTSLRHFPHWYMYAIGYQMRRGNRDAKTSRWLLTCRPTTKTITKNTIDHL”, the protein production is reported as “failed”.
With “MMTPEQIATVMTGKVEAAGKGRHEAVLASPMIQNHAPFLHLADDGALICAWFGGTLEGKSDISIFTSVLAAGSNKWGEPQRLSFDPDHSEQNPVLFAAPGNTLLLFHTSQPSGNQDECRIRMAEVSRDASDPTRLTAGEGLYLDLPRGCFVRAPLTVRADGAWLLPIFRCIQRPGQKWNGSHDRAAVGISEDCGKSWRLEDIDQSTGCVHMSPLVIGDEKLAAVFRRRQADFVYRTESADGGRTWSAPQATDVPNNNSSIAAIRLNDGRIAMICNPTNAAMSSDRRASLYDELGEDDDRPDANPDGGCVPIWGVPRAPVTVCISEDGAKSFPQRITIEDGPGTCLSNNSIDGHNKEMSYPWLLEGADGSLHIAYTYYRRAIKYVRLAPGWARAADGR” the protein production was “failed”.
With “MMTRNKEFPMQMQSVTPARLVTTGLAFGESPRWHGGRLWVCNWGTSEIIATDAHGNREIMLIVPAVLPYSIDWLQDGRLLVVSGREGLLLRQEVDGKLVTHADLRGLSKSPWNEIVVDGRGNIYVNGGGPAPAAGEYFGPGTVVLITADGAVRQVADDIAFANGMAVTPDNKTLILAESHGNRLTAFDIAADGSLSNRRAWADLDGYPDGICLDAEGAVWYADVPNKHCVRVREGGEVLQTVTVDRGCFACMLGGADRRTLFIVAAEWRGFEHMVGDARTGQVLSVDAPAPGVGWP” the protein production was “failed”.
In the case of “MMTTLQILFWLSLFLVFYTHLGYGILLYMLVKLKELFVKPVRRQLPPDKRLPDVTLFITAFNEEEVVDEKMRNCLGLDYPADKLHIVWTTDGSNDSTNQRLEDWPQATVHFQPLRQGKTAAMTRGMMLVDTPLVVFTDANTMLNREAIREIVRAFEDPKVGCVAGEKRIAVQEKDGAAAGGEGIYWKYESTLKALDARLYSAVGAAGELFAVRRELFTVMEPDTLLDDFILSLRIAMQGYKIAYCTQAYAIESGSADIREEQKRKVRIAAGGLQSIWRLRELLNPFRYGVLTFQYVSHRVLRWSLAPVLLFALLPLNIAILLAGGSPVCYGTILALQLLFYIMGGWGYYLSTRQVKNKLLFIPYYFLFMNINVMKGVNYLRKKKGTGAWEKAKRTKTESLNQ”, the protein production is reported as “failed”.
In the case of “MMTTRNGSLRFFNHTFSFYDEATCVVREEELQRELMPRHVSFILDGNRRWAKRDGLTTAQGHEAGTKRIIEIAERIGEETRKEVRVSVIGNKTKIPESLLKEIHEIEEATKATRISISSWQ”, the protein production is reported as “failed”.
In the case of “MMVDTGVDHRAVSSHDGPDAGRRVFGAADPRFACVVRAFASMFPGRRFGGGALAVYLDGQPVVDVWKGWADRAGWVPWSADSAPMVFSATKGMTATVIHRLADRGLIDYEAPVAEYWPAFGANGKATLTVRDVMRHQAGLSGLRGATQQDLLDHVVMEERLAAAVPGRLLGKSAYHALTFGWLMSGLARAVTGKDMRLLFREELAEPLDTDGLHLGRPPADAPTRVAEIIMPQDIAANAVLTCAMRRLAHRFSGGFRSMYFPGAIAAVQGEAPLLDAEIPAANGVATARALARMYGAIANGGEIDGIRFLSRELVTGLTRNRRQVLPDRNLLVPLNFHLGYHGMPIGNVMPGFGHVGLGGSIGWTDPETGVAFALVHNRLLSPLVMTDHAGFVGIYHLIRQAAAQARKRGYQPVTPFGAPYSEPGAAAG”, the protein production is reported as “failed”.
With “MMVKDGLRYWPLGMAFLLGVGLQPVRAAEMFLPPTGLAQEELIALTEVDSLAQARLPQSEGSAIDLLPLPPQPTAAVDPPREAPASLPTTIEVKGDSPAPPVEPSPPTTDNSPGVPTTPQLAAEQAVQEARLALLREGDRYWQLGDLTTARTYYQKAKADLNVPPPHVIPPAVLEISQLPPAAQVYWREVQSGSQLYTAQAVPLQLLVEQFPEFIPAQVRFGEFLAQQGSLKEACAHLEKAASLYPDQPDIQRGLITLYDRQQQWLEAALAAQRFALLNPDHPATPEFEQLAAERMQRFRRRLQGQLREGMVVGALTGLVGVALTGNPLLSLDSIQMMTLMMQGESALGRSAARNISRQVKLLEDAAVQTYVNEVGQRLAKVAGRNEFAYEFFVIKDNDLNAFALPGGKIFVNSGAILKASTEAELAGLLAHEIAHTVLSHGFRLMTQGTATANLTRLLPAGGYVTGIVVTSYSREMEREADILGTQILARAGYAADGLLNLMHTLKKEYRNQEPPLPWFSTHPPTNERIRYIRGLMRDRGYTPFAFEGLERHQRIQAHLRTLVDPPNAPKSKRETAKTPQ” the protein production was “failed”.
